The source of these data is paper PMC4519192, “In vitro Selection and Interaction Studies of a DNA Aptamer Targeting Protein A”.

For data set [1], the target named is T1, Protein A, native biotinylated (Sigma P2165) (Staphylococcus aureus, UniProt P38507 37-477). Nature of the data set: bead-based fluorescence binding. As to conditions: tags: biotin, label: 5'-fluorescein.
The target of data set [2] is T2, Protein A, recombinant (Sigma P7837) (UniProt P38507 37-327). Nature of the data set: MST; 25 C, in solution. As to conditions: protein: recombinant, label: 5'-fluorescein.
Data set [3] deals with T3, Protein A, native (Sigma P3838) (Staphylococcus aureus, UniProt P38507 37-477). The data set can be described thus: MST; 25 C, in solution. As to conditions: protein: native, label: 5'-fluorescein.
In data set [4] the target is T1, Protein A, native biotinylated (Sigma …). Nature of the data set: SPR; steady state; Protein A immobilized ~600 RU. As to conditions: tags: biotin, label: 5'-fluorescein. For orientation: SPR reads the build-up and loss of mass on a sensor chip optically.
Data set [5] has as its target T2, Protein A, recombinant (Sigma P7837). The data set can be described thus: SPR; steady state; aptamer immobilized 1030 RU. The note with it: label: 3'-biotin, predicted stem-loop.
Data set [6] concerns the target T1, Protein A, native biotinylated (Sigma …). Nature of the data set: bead-based fluorescence binding; Protein A on streptavidin beads. As to conditions: tags: biotin, label: 5'-fluorescein.
Data set [7] has the same target. The data set can be described thus: SPR; kinetic 1:1 fit; ka 1.23e3 M-1s-1, kd 1.66e-3 s-1. As to conditions: tags: biotin, label: 5'-fluorescein.
Data set [8] deals with Protein G, recombinant (Pierce 21193) (group G Streptococci, UniProt P06654 228-352). Nature of the data set: SPR; 1000 nM protein. As to conditions: label: 3'-biotin, predicted stem-loops, possible G4.
Sequence of Protein G, recombinant (Pierce 21193) (P06654 228-352): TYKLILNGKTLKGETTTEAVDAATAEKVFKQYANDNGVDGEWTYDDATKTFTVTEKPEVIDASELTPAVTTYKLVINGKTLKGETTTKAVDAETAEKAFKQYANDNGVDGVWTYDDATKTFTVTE
The target in data set [9] is T3, Protein A, native (Sigma P3838). The data set can be described thus: SPR; steady state; aptamer immobilized 1158 RU; avidity. The note with it: label: 3'-biotin.
For data set [10], the target named is T2, Protein A, recombinant (Sigma P7837). The data set can be described thus: SPR; single-cycle mode; aptamer 516 RU. The note with it: label: 3'-biotin.
Data set [11] has the same target. Nature of the data set: SPR; steady state; aptamer immobilized 1086 RU; avidity. The note with it: label: 3'-biotin.
Data set [12] concerns the target human thrombin (89223 Fluka) (human, UniProt P00734;P00734 328-363;364-622). Nature of the data set: SPR.

B1: PA#2/8[S19-76] (structured_DNA)
DNA: AGCAACATGAGGGGGATAGAGGGGGTGGGTTCTCTCGGCTACAATCGTAATCAGTTAG
Take B1: the binding result in [1] was “no binding”.
Regarding AGCAACATGAGGGGGATAGAGGGGGTGGGTTCTCTCGGCT (structured_DNA) [PA#2/8KR40], the binding result in data set [1] is recorded as “no binding”.

B2: PA#2/8[S1-58] 5'-fluorescein (structured_DNA)
DNA: ATACCAGCTTATTCAATTAGCAACATGAGGGGGATAGAGGGGGTGGGTTCTCTCGGCT
Regarding B2, the Kd in data set [2] (predicted stem-loop) is 94.7 ± 64.6 nM; in data set [3] (predicted stem-loop), 222 ± 60.5 nM; in [4] (predicted stem-loop), 1920 ± 250 nM.

B3: PA#2/8[S1-58] 3'-biotin (structured_DNA)
DNA: ATACCAGCTTATTCAATTAGCAACATGAGGGGGATAGAGGGGGTGGGTTCTCTCGGCT
Regarding B3, the Kd in data set [5] was 287 ± 16.2 nM.
As for ATACCAGCTTATTCAATTAGCAACATGAGGGGGAT (structured_DNA) [PA#2/8[S1-35]], in [1], the binding result is “no binding”.
As for ATACCAGCTTATTCAATTAGCAACATGAGGGGGATAGAGGGGG (structured_DNA) [PA#2/8[S1-43]], the results for the Kd in data set [2] (predicted stem-loop) and in data set [3] (predicted stem-loop) were 579 ± 123 nM and 214 ± 46.1 nM, respectively.

B4: PA#2/8 5'-fluorescein (structured_DNA)
DNA: ATACCAGCTTATTCAATTAGCAACATGAGGGGGATAGAGGGGGTGGGTTCTCTCGGCTACAATCGTAATCAGTTAG
In the case of B4, the Kd in [6] came out at 1060 ± 200 nM; in data set [2], 927 ± 404 nM; in data set [3] it was 668 ± 224 nM; in data set [4], 2220 ± 180 nM; in [7], 1350 nM.

B5: PA#2/8 3'-biotin (structured_DNA)
DNA: ATACCAGCTTATTCAATTAGCAACATGAGGGGGATAGAGGGGGTGGGTTCTCTCGGCTACAATCGTAATCAGTTAG
In the case of B5, the binding result in [8] and in data set [12] was “no binding” in each case. Also, the Kd in data set [9] stood at 84 ± 5 nM; in data set [10] it was 148 ± 7.6 nM; in [11], 172 ± 14 nM.
GATAGAGGGGGTGGGTTCTCTCG (structured_DNA) [PA#2/8KR23]: the binding result in [1] is “no binding”.
On the same count and under the same terms, next, ATACCAGCTTATTCAATTAGCAACATGA (structured_DNA) [PA#2/8[S1-28]]: “no binding”.
